Data taken from the supplement of paper PMC10065799, “High-throughput profiling of sequence recognition by tyrosine kinases and SH2 domains using bacterial peptide display” (eLife, 2023).

Columns and labels:
EPHB2 = EPHB2 (UniProt P29323); assay: phosphorylation enrichment, bacterial display (enrichment ratio); higher = better substrate or ligand; peptides without Tyr show the background
Fyn = Fyn (UniProt P06241); assay: as above
c-Abl (mouse) = assay: as above
Fer (mouse) = assay: as above
Jak2 = Jak2 (UniProt O60674); assay: as above
AncSZ = assay: as above
MERTK = MERTK (UniProt Q12866); assay: as above
Fes = Fes (UniProt P07332); assay: as above
FGFR3 = FGFR3 (UniProt P22607); assay: as above
c-Src = assay: as above
FGFR1 = FGFR1 (UniProt P11362); assay: as above
Hck = Hck (UniProt P08631); assay: as above
EPHB1 = EPHB1 (UniProt P54762); assay: as above
c-Src SH2 = assay: SH2 binding enrichment of the phosphorylated peptide, bacterial display (enrichment ratio); higher = better substrate or ligand; peptides without Tyr show the background
SHP2-C SH2 = assay: as above
Grb2 SH2 = Grb2 SH2 (UniProt P62993); assay: as above
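Wherever SH2 binding enrichment of the phosphorylated peptide, bacterial display is given: peptide library displayed on the E. coli surface as eCPX fusions, selected cells deep-sequenced, score is each peptide's frequency after selection divided by its frequency in the input.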
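Wherever phosphorylation enrichment, bacterial display is given: 11-residue human phosphosite peptides and single-mutation variants displayed on the E. coli surface, counted by deep sequencing, each peptide's frequency after selection divided by its frequency in the unselected input library; frequency after pTyr selection over input frequency; kinase dosed for 20-30% of maximal phosphorylation in three min.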

Grb2 SH2, sequence (P62993 whole entry, looked up, the tested form may be a part): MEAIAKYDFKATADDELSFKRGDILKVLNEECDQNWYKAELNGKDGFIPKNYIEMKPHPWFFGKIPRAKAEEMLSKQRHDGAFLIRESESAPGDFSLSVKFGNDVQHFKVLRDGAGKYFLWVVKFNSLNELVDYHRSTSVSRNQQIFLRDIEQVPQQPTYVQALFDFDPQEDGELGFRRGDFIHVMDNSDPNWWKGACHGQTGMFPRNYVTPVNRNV
Fes, sequence (P07332 whole entry, looked up): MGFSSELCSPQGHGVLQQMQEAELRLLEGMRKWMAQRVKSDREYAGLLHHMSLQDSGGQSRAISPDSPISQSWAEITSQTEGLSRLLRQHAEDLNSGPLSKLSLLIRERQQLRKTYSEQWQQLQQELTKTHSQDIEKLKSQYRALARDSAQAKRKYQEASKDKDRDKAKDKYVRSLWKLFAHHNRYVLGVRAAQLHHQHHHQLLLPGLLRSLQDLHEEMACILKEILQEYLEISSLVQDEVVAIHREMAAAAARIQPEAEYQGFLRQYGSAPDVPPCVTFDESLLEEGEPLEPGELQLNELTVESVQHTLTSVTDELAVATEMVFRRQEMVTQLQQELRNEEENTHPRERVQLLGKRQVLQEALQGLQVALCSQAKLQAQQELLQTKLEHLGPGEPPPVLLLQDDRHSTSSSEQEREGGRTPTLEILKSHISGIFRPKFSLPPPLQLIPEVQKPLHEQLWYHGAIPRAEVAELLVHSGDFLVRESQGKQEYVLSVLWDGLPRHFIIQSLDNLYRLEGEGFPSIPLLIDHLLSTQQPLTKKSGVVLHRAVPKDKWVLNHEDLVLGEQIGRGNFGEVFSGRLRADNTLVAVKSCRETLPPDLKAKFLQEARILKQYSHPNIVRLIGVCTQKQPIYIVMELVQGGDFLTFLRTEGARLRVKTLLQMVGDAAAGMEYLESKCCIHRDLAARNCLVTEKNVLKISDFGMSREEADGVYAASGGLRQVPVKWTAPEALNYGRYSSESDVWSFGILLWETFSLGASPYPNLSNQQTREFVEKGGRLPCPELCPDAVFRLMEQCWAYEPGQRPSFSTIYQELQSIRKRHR
EPHB2, sequence (P29323 whole entry, looked up): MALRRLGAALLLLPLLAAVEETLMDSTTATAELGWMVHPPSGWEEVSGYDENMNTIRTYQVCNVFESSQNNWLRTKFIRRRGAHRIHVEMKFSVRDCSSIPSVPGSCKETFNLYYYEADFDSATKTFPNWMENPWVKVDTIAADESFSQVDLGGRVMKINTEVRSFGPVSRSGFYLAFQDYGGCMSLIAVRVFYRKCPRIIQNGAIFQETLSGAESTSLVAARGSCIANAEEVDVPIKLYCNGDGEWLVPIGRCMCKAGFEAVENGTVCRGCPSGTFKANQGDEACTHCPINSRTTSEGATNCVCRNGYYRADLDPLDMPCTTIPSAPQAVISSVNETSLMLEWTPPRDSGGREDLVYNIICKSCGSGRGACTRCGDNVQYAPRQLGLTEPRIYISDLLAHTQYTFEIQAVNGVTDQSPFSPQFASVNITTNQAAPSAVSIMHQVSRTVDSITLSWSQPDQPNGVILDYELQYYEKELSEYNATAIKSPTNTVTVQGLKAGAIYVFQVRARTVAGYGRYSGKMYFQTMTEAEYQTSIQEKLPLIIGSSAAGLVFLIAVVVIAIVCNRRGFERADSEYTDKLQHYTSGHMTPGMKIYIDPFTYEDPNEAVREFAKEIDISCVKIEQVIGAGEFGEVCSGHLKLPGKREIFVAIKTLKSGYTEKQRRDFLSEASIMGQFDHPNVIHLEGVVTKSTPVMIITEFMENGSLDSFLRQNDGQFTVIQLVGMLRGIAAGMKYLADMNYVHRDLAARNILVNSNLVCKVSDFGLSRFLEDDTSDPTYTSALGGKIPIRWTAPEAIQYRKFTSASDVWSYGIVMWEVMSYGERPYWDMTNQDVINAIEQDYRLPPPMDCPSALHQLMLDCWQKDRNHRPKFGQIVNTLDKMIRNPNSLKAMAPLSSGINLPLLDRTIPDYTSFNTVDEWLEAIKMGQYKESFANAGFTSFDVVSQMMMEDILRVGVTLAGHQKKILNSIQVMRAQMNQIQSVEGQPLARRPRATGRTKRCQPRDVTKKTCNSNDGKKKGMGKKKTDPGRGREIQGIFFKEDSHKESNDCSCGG
Hck, sequence (P08631 whole entry, looked up): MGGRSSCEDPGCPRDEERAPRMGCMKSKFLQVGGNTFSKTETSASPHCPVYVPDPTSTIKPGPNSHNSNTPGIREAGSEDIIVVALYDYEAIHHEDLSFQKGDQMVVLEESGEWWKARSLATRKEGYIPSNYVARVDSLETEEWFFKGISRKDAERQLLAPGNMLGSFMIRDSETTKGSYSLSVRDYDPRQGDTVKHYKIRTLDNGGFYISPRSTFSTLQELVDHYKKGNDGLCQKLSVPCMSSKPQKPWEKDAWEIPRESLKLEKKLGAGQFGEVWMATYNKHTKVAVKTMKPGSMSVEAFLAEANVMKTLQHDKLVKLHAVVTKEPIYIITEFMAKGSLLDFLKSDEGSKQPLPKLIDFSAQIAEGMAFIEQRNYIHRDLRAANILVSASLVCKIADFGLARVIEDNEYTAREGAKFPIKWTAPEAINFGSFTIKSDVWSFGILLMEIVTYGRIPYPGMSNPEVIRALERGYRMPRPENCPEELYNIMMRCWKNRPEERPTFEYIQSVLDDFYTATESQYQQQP
FGFR3, sequence (P22607 whole entry, looked up): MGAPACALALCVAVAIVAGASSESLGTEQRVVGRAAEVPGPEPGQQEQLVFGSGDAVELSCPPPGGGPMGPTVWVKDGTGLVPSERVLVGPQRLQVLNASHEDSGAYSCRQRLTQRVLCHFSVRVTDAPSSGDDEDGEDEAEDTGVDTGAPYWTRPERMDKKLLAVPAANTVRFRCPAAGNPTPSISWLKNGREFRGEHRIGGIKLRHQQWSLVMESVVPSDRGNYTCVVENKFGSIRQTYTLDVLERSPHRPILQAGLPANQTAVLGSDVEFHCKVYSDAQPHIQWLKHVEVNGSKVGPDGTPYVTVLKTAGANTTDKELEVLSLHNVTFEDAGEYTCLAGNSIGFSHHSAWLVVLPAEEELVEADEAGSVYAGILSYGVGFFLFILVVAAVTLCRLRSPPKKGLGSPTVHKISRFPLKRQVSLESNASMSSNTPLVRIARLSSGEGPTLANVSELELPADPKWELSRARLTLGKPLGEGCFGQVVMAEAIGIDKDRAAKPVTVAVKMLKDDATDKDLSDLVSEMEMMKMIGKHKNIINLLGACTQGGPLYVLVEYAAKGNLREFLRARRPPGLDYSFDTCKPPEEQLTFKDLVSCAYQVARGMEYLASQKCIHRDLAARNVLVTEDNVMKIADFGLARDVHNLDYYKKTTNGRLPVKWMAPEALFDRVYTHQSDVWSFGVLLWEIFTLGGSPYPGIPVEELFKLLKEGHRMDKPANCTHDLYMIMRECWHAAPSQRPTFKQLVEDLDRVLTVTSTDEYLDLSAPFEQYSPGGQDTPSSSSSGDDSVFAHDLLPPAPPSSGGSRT
Jak2, sequence (O60674 whole entry, looked up): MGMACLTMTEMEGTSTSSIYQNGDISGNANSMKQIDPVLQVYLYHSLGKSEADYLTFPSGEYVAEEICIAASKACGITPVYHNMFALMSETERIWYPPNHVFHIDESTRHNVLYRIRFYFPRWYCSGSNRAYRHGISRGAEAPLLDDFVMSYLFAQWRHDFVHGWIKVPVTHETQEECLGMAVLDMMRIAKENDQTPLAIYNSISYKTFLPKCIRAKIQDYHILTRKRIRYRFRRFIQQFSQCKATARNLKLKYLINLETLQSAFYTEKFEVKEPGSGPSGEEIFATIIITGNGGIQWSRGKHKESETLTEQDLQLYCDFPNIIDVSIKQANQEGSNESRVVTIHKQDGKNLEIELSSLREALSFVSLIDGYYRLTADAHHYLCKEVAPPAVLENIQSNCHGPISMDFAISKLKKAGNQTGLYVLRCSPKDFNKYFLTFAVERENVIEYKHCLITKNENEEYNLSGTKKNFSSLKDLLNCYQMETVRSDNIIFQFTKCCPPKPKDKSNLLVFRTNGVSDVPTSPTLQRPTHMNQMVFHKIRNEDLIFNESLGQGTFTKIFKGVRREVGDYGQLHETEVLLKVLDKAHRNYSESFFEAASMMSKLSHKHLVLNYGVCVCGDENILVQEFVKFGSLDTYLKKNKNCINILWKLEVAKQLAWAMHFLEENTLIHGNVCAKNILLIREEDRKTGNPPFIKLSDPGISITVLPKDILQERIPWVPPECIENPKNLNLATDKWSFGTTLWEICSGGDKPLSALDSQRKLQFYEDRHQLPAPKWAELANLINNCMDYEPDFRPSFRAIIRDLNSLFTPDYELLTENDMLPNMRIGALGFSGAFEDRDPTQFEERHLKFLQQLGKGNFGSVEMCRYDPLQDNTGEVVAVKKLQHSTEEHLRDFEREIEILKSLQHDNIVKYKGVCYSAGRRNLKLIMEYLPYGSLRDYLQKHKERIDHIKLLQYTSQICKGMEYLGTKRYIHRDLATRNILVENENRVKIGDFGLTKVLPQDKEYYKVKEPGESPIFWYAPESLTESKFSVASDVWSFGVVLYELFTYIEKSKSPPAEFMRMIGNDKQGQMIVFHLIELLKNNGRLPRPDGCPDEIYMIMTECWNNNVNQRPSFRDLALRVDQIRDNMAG

Row | Sequence | phosphorylation enrichment (EPHB2) | phosphorylation enrichment (Fyn) | phosphorylation enrichment (c-Abl (mouse)) | phosphorylation enrichment (Fer (mouse)) | phosphorylation enrichment (Jak2) | phosphorylation enrichment (AncSZ) | phosphorylation enrichment (MERTK) | phosphorylation enrichment (Fes) | phosphorylation enrichment (FGFR3) | phosphorylation enrichment (c-Src) | phosphorylation enrichment (FGFR1) | phosphorylation enrichment (Hck) | phosphorylation enrichment (EPHB1) | SH2 binding enrichment (c-Src SH2) | SH2 binding enrichment (SHP2-C SH2) | SH2 binding enrichment (Grb2 SH2)
1 | LIEQAYDNPHE [PRPF8_Y871] | 0.824 | 0.645 | 0.767 | 0.602 | 0.811 | 1.12 | 0.43 | 1.16 | 0.695 | 0.472 | 0.566 | 0.86 | 0.638 | 5.87 | 0.729 | 0.828
2 | GHLFAYDWIRI [BEST1_Y227_S231R_YF] | 0.641 | 0.673 | 0.674 | 12.5 | 0.867 | 1 | 4.78 | 1.51 | 1.22 | 0.941 | 1.68 | 1.6 | 0.787 | 1.56 | 1.43 | 1.66
3 | AKAEIYEMRPL [COX10_Y97] | 6.54 | 11.4 | 0.801 | 6.76 | 0.77 | 1.08 | 8.29 | 0.912 | 0.672 | 9.82 | 0.552 | 12.1 | 11 | 0.573 | 0.623 | 0.895
4 | IDQDKYAVRFI [FLNA_Y2388] | 0.458 | 0.488 | 0.566 | 0.473 | 0.635 | 0.78 | 0.379 | 0.787 | 0.545 | 0.393 | 0.425 | 0.524 | 0.459 | 0.54 | 0.696 | 0.865
5 | ESDYTYSSSYE [SRPK2_Y427] | 1.45 | 1.11 | 0.725 | 0.68 | 0.852 | 2.42 | 0.486 | 1.15 | 1.06 | 1.43 | 1.12 | 0.86 | 1.3 | 1.15 | 0.734 | 0.829
6 | SKNYTYIWWLN [PSG4_Y271] | 0.58 | 0.343 | 0.676 | 0.638 | 1.09 | 1.09 | 0.332 | 1.14 | 0.77 | 0.273 | 0.589 | 0.4 | 0.582 | 0.444 | 0.657 | 0.921
7 | NCLRVYVAGRF [CRB1_Y711_E710V] | 0.627 | 0.535 | 1.03 | 0.434 | 1.08 | 1.71 | 0.339 | 1.15 | 0.758 | 0.567 | 0.447 | 0.414 | 0.497 | 0.678 | 0.97 | 1.11
8 | YCRITYDIFPF [INTS13_Y67_M66T] | 3.79 | 1.57 | 1.18 | 0.785 | 1.45 | 1.8 | 2.83 | 1.59 | 1.38 | 2.57 | 1.28 | 2.72 | 3.8 | 1.42 | 0.791 | 0.847
9 | DGYIDYAEFAK [MCFD2_Y138] | 0.579 | 0.635 | 0.674 | 0.407 | 0.917 | 1.13 | 0.455 | 1 | 1 | 0.912 | 1.31 | 0.657 | 0.639 | 0.661 | 0.47 | 0.733
10 | FLLRVYSIFSK [SGCE_Y38_T36R] | 0.402 | 0.437 | 0.987 | 0.433 | 0.804 | 0.886 | 0.634 | 1.02 | 1.28 | 1.49 | 0.574 | 0.504 | 0.321 | 1.51 | 1.84 | 2.26
11 | ENRKFYKDLKE [PURA_Y156_M157K_YF] | 0.552 | 0.418 | 0.431 | 0.387 | 0.536 | 0.532 | 0.589 | 0.699 | 0.493 | 0.422 | 0.401 | 0.473 | 0.312 | 0.426 | 0.739 | 0.847
12 | LTFDEYRNISQ [ANXA3_Y216] | 0.782 | 0.854 | 1.13 | 1.08 | 1.58 | 1.82 | 0.498 | 1.93 | 1.49 | 0.643 | 1.23 | 1.08 | 1.01 | 0.49 | 0.585 | 2.68
13 | CTTIHYNYMWN [TP53_Y234_C238W] | 0.746 | 0.569 | 0.824 | 1.77 | 0.966 | 1.21 | 1.82 | 1.32 | 0.976 | 0.496 | 1.21 | 0.544 | 1.12 | 0.874 | 1.18 | 1.11
14 | DFLSSYSAVKQ [OAT_Y85_N89K] | 0.502 | 0.466 | 0.46 | 0.746 | 0.639 | 1.5 | 0.273 | 1.03 | 0.445 | 0.444 | 0.491 | 0.429 | 0.516 | 1.21 | 4.04 | 1.05
15 | YLNSSYINIST [IL23R_Y178_T175N] | 0.453 | 0.475 | 0.574 | 0.439 | 1.23 | 0.875 | 0.606 | 0.799 | 2.14 | 0.436 | 2.69 | 0.591 | 0.525 | 4.78 | 2.57 | 24.6
16 | FDGGCYEQLFV [MC4R_Y41_S36Y_YF] | 1.07 | 1.81 | 0.748 | 10.7 | 1.43 | 2.53 | 0.875 | 1.49 | 1.33 | 2.46 | 1.05 | 2.67 | 1.09 | 0.485 | 0.654 | 0.709
17 | NTGNYYDLYGG [PTPN11_Y63_D61N] | 20.1 | 6.39 | 1.01 | 2.82 | 2.42 | 1.73 | 9.28 | 0.984 | 12.6 | 5.29 | 15.7 | 6.84 | 18.3 | 2.49 | 0.854 | 1.08

Row | Sequence | phosphorylation enrichment (EPHB2) | phosphorylation enrichment (Fyn) | phosphorylation enrichment (c-Abl (mouse)) | phosphorylation enrichment (Fer (mouse)) | phosphorylation enrichment (Jak2) | phosphorylation enrichment (AncSZ) | phosphorylation enrichment (MERTK) | phosphorylation enrichment (Fes) | phosphorylation enrichment (FGFR3) | phosphorylation enrichment (c-Src) | phosphorylation enrichment (FGFR1) | phosphorylation enrichment (Hck) | phosphorylation enrichment (EPHB1) | SH2 binding enrichment (c-Src SH2) | SH2 binding enrichment (SHP2-C SH2) | SH2 binding enrichment (Grb2 SH2)
18 | KSVVTYSPTTG [ITGB3BP_Y32_I30V] | 0.416 | 0.401 | 0.618 | 0.369 | 0.489 | 0.478 | 0.423 | 0.527 | 0.442 | 0.431 | 0.375 | 0.372 | 0.427 | 0.397 | 0.668 | 0.814
19 | MGSFNYLGFAW [SPTLC2_Y178_R183W_YF] | 1.09 | 0.547 | 0.768 | 0.559 | 1.85 | 1.17 | 0.681 | 1.16 | 1.03 | 0.72 | 0.971 | 0.588 | 2.34 | 0.385 | 0.601 | 0.676
20 | PELIDYGKLWK [ACTN1_Y193_R197W] | 0.683 | 0.601 | 0.912 | 0.531 | 0.761 | 1.31 | 0.522 | 1.26 | 0.766 | 0.59 | 0.535 | 0.393 | 0.718 | 0.538 | 0.989 | 0.958
21 | IIEDPYFGNDF [ACP1_Y132_S137F_YF] | 0.695 | 1.11 | 0.871 | 0.757 | 1.3 | 1.36 | 0.487 | 1.43 | 0.908 | 2.98 | 0.791 | 0.823 | 0.664 | 0.519 | 0.662 | 0.769
22 | GFRVCYTPDSR [PTPRF_Y451_Y450C_YF] | 0.512 | 0.397 | 0.777 | 0.548 | 1.01 | 1.26 | 0.419 | 1.34 | 0.691 | 0.451 | 0.472 | 0.507 | 0.513 | 0.444 | 0.687 | 0.787
23 | FDAHIYEGCVI [PRKCD_Y64_R67C] | 0.639 | 2.48 | 0.938 | 10.5 | 1.05 | 1.39 | 0.635 | 1.44 | 0.831 | 3.34 | 0.563 | 2.53 | 0.656 | 0.5 | 0.758 | 0.713
24 | NGTVTYAIIAG [CDH23_Y1672_V1675I] | 1.12 | 0.968 | 0.892 | 0.503 | 0.989 | 1.1 | 2.68 | 1.28 | 0.746 | 1.33 | 0.628 | 1.31 | 2.83 | 1.43 | 16.6 | 0.78
25 | VDTRAYLTSAT [MT-CO1_Y304_F305L] | 0.438 | 0.436 | 0.637 | 0.488 | 0.603 | 0.671 | 0.393 | 0.763 | 0.723 | 0.414 | 0.518 | 0.377 | 0.589 | 0.439 | 0.569 | 0.774
26 | YRASYYRRGDR [LTK_Y677] | 0.535 | 0.534 | 0.693 | 0.496 | 0.436 | 0.653 | 0.603 | 0.485 | 0.431 | 0.598 | 0.511 | 0.494 | 0.446 | 0.411 | 0.609 | 0.704
27 | SSYSGYIMMPN [LEF1_Y114] | 1.09 | 0.571 | 0.486 | 0.604 | 5.39 | 0.858 | 2.47 | 0.718 | 2.38 | 0.684 | 3.79 | 0.51 | 0.923 | 1.99 | 1 | 0.905
28 | KYLENYLNRLL [PLD2_Y169] | 0.483 | 0.45 | 0.809 | 0.609 | 0.859 | 0.832 | 0.478 | 0.989 | 0.577 | 0.475 | 0.459 | 0.414 | 0.523 | 1.27 | 1.44 | 1.46
29 | NDQPDYDSVAS [GIT2_Y392] | 0.671 | 0.546 | 0.849 | 0.558 | 1.23 | 1.3 | 0.511 | 1.19 | 0.76 | 0.992 | 0.522 | 0.735 | 0.63 | 0.658 | 0.767 | 0.902
30 | SREDIYKRNIE [PDE4DIP_Y45] | 0.553 | 0.591 | 0.654 | 0.431 | 0.7 | 0.659 | 0.366 | 0.81 | 0.585 | 0.405 | 0.5 | 0.603 | 0.422 | 0.403 | 0.753 | 0.767
31 | VREIRYQGGNR [VWF_Y1570] | 0.511 | 0.421 | 0.615 | 0.402 | 0.968 | 0.597 | 0.522 | 0.653 | 0.382 | 0.495 | 0.378 | 0.42 | 0.329 | 0.391 | 0.476 | 0.539
32 | SLNEVYTKNKT [MSH2_Y563_E562V] | 0.411 | 0.411 | 0.437 | 0.328 | 0.514 | 0.641 | 0.423 | 0.727 | 0.444 | 0.431 | 0.446 | 0.38 | 0.375 | 0.456 | 0.581 | 0.722
33 | IFETDYFRKGG [INSR_Y1189_YF] | 0.626 | 0.5 | 0.741 | 0.581 | 0.934 | 0.988 | 0.436 | 0.938 | 0.686 | 0.539 | 0.536 | 0.529 | 0.568 | 0.472 | 0.672 | 0.918
